B1: Pheromone alpha factor receptor (Saccharomyces cerevisiae (Baker's yeast)), P0CI39 (parent)
chain: MSDAAPSLSNLFYDPTYNPGQSTINYTSIYGNGSTITFDELQGLVNSTVTQAIMFGVRCGAAALTLIVMWMTSRSRKTPIFIINQVSLFLIILHSALYFKYLLSNYSSVTYALTGFPQFISRGDVHVYGATNIIQVLLVASIETSLVFQIKVIFTGDNFKRIGLMLTSISFTLGIATVTMYFVSAVKGMIVTYNDVSATQDKYFNASTILLASSINFMSFVLVVKLILAIRSRRFLGLKQFDSFHILLIMSCQSLLVPSIIFILAYSLKPNQGTDVLTTVATLLAVLSLPLSSMWATAANNASKTNTITSDFTTSTDRFYPGTLSSFQTDSINNDAKSSLRSRLYDLYPRRKETTSDKHSERTFVSETADDIEKNQFYQLPTPTSSKNTRIGPFADASYKEGEVEPVDMYTPDTAADEEARKFWTEDNNNL
partner: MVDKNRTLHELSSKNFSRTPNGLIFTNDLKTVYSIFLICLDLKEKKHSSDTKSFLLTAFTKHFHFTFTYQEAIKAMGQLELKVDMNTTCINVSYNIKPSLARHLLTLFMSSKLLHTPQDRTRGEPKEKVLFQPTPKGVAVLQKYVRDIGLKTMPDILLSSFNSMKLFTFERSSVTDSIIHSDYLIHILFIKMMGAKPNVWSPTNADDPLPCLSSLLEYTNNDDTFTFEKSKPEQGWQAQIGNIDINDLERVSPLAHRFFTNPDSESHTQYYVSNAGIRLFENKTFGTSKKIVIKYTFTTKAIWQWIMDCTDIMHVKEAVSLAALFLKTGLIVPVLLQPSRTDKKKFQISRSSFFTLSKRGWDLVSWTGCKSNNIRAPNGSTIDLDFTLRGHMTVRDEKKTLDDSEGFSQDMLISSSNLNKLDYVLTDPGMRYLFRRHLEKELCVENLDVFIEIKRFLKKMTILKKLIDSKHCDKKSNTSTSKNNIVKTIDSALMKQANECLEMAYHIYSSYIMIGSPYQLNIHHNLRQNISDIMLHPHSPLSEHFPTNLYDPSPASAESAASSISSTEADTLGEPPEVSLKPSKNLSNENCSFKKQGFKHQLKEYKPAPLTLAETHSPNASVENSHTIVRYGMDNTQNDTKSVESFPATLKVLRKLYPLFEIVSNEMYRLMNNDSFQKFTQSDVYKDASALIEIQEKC
B2: Protein SST2 (Saccharomyces cerevisiae), P11972 (parent)
chain: B1 partner
partner: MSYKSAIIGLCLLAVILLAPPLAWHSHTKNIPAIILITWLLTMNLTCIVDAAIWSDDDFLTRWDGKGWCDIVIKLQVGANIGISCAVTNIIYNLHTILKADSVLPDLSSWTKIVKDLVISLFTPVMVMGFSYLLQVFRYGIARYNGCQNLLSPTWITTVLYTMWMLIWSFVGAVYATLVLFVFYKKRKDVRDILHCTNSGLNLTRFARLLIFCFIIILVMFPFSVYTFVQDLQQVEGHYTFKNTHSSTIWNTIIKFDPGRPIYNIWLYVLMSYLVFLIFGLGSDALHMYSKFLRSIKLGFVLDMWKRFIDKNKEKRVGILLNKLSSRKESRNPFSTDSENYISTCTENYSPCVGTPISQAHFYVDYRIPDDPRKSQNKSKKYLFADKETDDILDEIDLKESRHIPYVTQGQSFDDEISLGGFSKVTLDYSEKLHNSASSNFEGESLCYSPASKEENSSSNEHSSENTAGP
B3: Protein SST2 (Saccharomyces cerevisiae), P11972 (parent)
chain: B1 partner
partner: B1 chain
B4: Pheromone a factor receptor (Saccharomyces cerevisiae), P06783 (parent)
chain: B2 partner
partner: B1 partner

Variants of: B1
Settings: with sst2_yeast SST2, P11972

effect of a mutation on the interaction	Variant
increasing interaction	K337R;K352R;K358R;K374R;K387R;K400R;K422R

Variants of: B2
Settings: with ste3_yeast STE3, P06783

effect of a mutation on the interaction	Variant
disrupting interaction	Q304N

Variants of: B3
Settings: with ste2_yeasx STE2, P0CI39

effect of a mutation on the interaction	Variant
disrupting interaction	Q304L
disrupting interaction	Q304E

Variants of: B3
Settings: with ste2_yeasx STE2, P0CI39
Remark: another data set of the same source

effect of a mutation on the interaction	Variant
disrupting interaction	Q304N

Variants of: B4
Settings: with sst2_yeast SST2, P11972

effect of a mutation on the interaction	Variant
increasing interaction	K424R;K432R;K453R

Reference: IntAct's records for PubMed 16990133
